Assay results published in article PMC7762940.

Molecular target: TubY C-terminal domain (BcYCΔ; residues 107-182) of pBc10987 from Bacillus cereus (Bacillus cereus (plasmid pBc10987))
Assay: crystal structure; Se-substituted BcYCΔ at 1.4 mM in 10 mM Tris pH 8.0, 0.1 M NaCl, 3 mM DTT; sitting drop, 20 °C, 0.1 M HEPES pH 7.5, 0.2 M MgCl2, 30% PEG400; 2.6 Å; four monomers in the asymmetric unit

TubY C-terminal domain (BcYCΔ; residues 107-182) of pBc10987 from Bacillus cereus (domain or fragment)
stoichiometry N: 4
